Experimental data: patent US9228015B2, “Nogo receptor antagonists and methods of increasing neurite outgrowth” (Biogen Idec MA Inc., priority 2006, dated 2016)

What was measured:
[1] = system: rats with dorsal hemisection (CST transection); assay: Functional recovery after spinal cord transection in rats (BBB, stride length; Example 30); type: in vivo, rat
Description: Briefly, female Long Evans rats (7 weels old; Charles River, Wilmington, Mass., USA) were anesthetized using 25 mg/kg midazolam i.p. (Abott Laboratories, Chicago, Ill., USA) and 2-3% fluothane (Baxter, Deerfield, Ill., USA) in O2 and a dorsal laminectomy performed at spinal level T6 and T7. General anesthesia wa maintained at 1.5-2% fluothane in O2 A dorsal hemisection was performed completely interrupting the main dorsomedial and the mino dorsplateral corticospinal tract (CST) components. A microscapel was used to sterotaxically transect the cord at a depth of 1.8 mm from the surface of the cord. Immediately after CST transection, an intrathecal catheter was inserted into the subarachnoid space at T7 and connected to a primed mini-osmotic pump inserted into the subcutaneous space. […] Functional recovery was assessed using the BBB openfield scoring method (Basso et al., J. Neurotrauma 12:1-21 (1995)) the following day and weekly thereafter.
A discriminating point on the BBB score is a score of 14, corresponding to consistent weight supported planter steps and consistent hindlimb-forelimb coordination.

[2] = system: rats with CST transection; assay: BDA-labeled axon counts caudal to spinal cord transection in rats (Example 31); type: in vivo, rat; details: 15 mm caudal to the injury site
Description: Treatment with NgR(310)ecto-Fc or combined treatment with MP and NgR(310)ecto-Fc enhanced axonal plasticity/regeneration after spinal cord transection. Briefly, for histological tracing of the CSTs, 2 weeks after CST transection animals were re-anesthetized and an incision made in the scalp. The area around the skin incision was injected with a local anesthetic, the left sensorimotor cortex exposed via a craniotomy and 7 μL 10% biotin dextran amine (BDA; 10,000 MW; Molecular Probes, Eugene, Oreg., USA) in PBS injected using a nanoliter injector and micro4 controller at 12 points 0-3.5 mm posterior to Bregma and […] lateral to the midline at a depth of 1 mm below the surface of the cortex. In some instances, the CST was labeled bilaterally using the same procedure.
At 28 days after CST transection, the rats were anesthetized with inactin (100-110 mg/kg i.p.) and transcardially perfused with heparinized saline (100 ml, 10 iu heparin) followed by 4% paraformaldehyde (150 ml). […]
Frozen sections (50 μm) were serially cut and stained with strepavidin-conjugated AlexaFluor-594 (1:200; Molecular Probes) to visualize labeled CST axons. […] Every eighth section, i.e., sections 400 μm apart, was counted for each animal at each level of the cord and the values were expressed as mean number of axons per section.

[3] = system: chick dorsal root ganglion neurons, myelin-induced neurite outgrowth inhibition; assay: Neurite outgrowth of embryonic day 13 chick DRG neurons on myelin (Example 29); type: cell-based; details: 8 μM NgR(310)ecto-Fc; MP 10 μg/nl as printed
Description: In investigating combined treatment with methyprednisolone (MP) and NgR(310)ecto-Fc for spinal cord injury (SCI), we sought to verify that these reagents have independent mechanisms of action. Briefly, myelin was dried overnight in poly-L-lysine-precoated plates (Becton Dickinson, Bedford, Mass., USA) at 80 or 400 ng/well (2.5 and 12.7 ng/mm^2, respectively). Wells were then coated with 10 µg/ml laminin (Calbiochem, La Jolla, Calif., USA) for 1 hour at foom temperature (22-24 C). Embryonic day 13 chick dorsal root ganglion neurons were dissociated and plated for 6-8 hours as previously described (GrandPre et al., 2000; Fournier et al., 2001). Neurons were treated with 8 μM NgR(310)ecto-Fc in the presence or absence of 10 μg/nl MP (Pharmacia, Kalamazoo, Mich., USA) for the entire outgrowth period. Neurons were then fixed and stained with βIII tubulin antibody (Covance, Princeton, N.J., USA) and neurite outgrowth was quantified using an automated cellular imaging and analysis system (Axon Instrument, Union City, Calif.; USA). Neurite outgrowth per cell was normalized to the average of duplicate control wells for each experiment (n=3). […] These in vitro data support the hypothesis that MP and NgR(310)ecto-Fc will enhance SCI recovery in a sequentially effective manner.

B1: NgR(310)ecto-Fc: ectodomain of the rat NgR1 (27-310) fused to a rat IgG (protein)
chain: PCPGACVCYNEPKVTTSRPQQGLQAVPAGIPASSQRIFLHGNRISYVPAASFQSCRNLTILWLHSNALAGIDAAAFTGLTLLEQLDLSDNAQLRVVDPTTFRGLGHLHTLHLDRCGLQELGPGLFRGLAALQYLYLQDNNLQALPDNTFRDLGNLTHLFLHGNRIPSVPEHAFRGLHSLDRLLLHQNHVARVHPHAFRDLGRLMTLYLFANNLSMLPAEVLVPLRSLQYLRLNDNPWVCDCRARPLWAWLQKFRGSSSGVPSNLPQRLAGRDLKRLATSDLEGCA
modifications: left off: a dimerising Fc or GST
notes: ectodomain of the rat NgR1 (27-310) fused to a rat IgG
[1]; 2, 3 and 4 weeks after SCI
  BBB scores normalized to day 2: significant improvement
[1]; 4 weeks after SCI
  mean stride length vs controls: significantly improved
[1]; after 4 weeks
  Mean BBB score: 14.8±0.24
[1]; by 4 weeks
  frequency of rats with BBB score of 14 or greater (consistent plantar stepping and coordinated movement): 100%
[2]
  number of BDA-labeled axons: significantly greater numbers
[3]
  effect on neurite outgrowth on a myelin substrate: reverse the inhibition
